# Entries after “also recorded” stand apart in the source; their conditions may differ.
# T1: nDer p 1 (Dermatophagoides pteronyssinus, UniProt P08176)
# T1 construct: Der p 1 has only been found in its mature form in the D. pteronyssinus faecal particles; from tissue; host or cells: D. pteronyssinus mite material
# T1 sequence (P08176 99-320): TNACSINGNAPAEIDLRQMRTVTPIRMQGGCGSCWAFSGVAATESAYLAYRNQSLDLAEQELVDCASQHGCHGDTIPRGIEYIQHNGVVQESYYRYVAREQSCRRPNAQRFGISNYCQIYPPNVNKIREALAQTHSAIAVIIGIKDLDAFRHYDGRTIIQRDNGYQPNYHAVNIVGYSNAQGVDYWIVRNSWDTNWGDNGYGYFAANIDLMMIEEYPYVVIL
# B1: nDer p 1: major house dust mite allergen, a 25371 Da papain-like cysteine protease purified from D. pteronyssinus (protein, UniProt P08176 99-320, looked up)
# Peptidase 1: TNACSINGNAPAEIDLRQMRTVTPIRMQGGCGSCWAFSGVAATESAYLAYRNQSLDLAEQELVDCASQHGCHGDTIPRGIEYIQHNGVVQESYYRYVAREQSCRRPNAQRFGISNYCQIYPPNVNKIREALAQTHSAIAVIIGIKDLDAFRHYDGRTIIQRDNGYQPNYHAVNIVGYSNAQGVDYWIVRNSWDTNWGDNGYGYFAANIDLMMIEEYPYVVIL
# B2: nDer p 1 pool 1: first flow-through peak of nDer p 1 from the SBTI-agarose column (protein, UniProt P08176 99-320, looked up)
# Peptidase 1: TNACSINGNAPAEIDLRQMRTVTPIRMQGGCGSCWAFSGVAATESAYLAYRNQSLDLAEQELVDCASQHGCHGDTIPRGIEYIQHNGVVQESYYRYVAREQSCRRPNAQRFGISNYCQIYPPNVNKIREALAQTHSAIAVIIGIKDLDAFRHYDGRTIIQRDNGYQPNYHAVNIVGYSNAQGVDYWIVRNSWDTNWGDNGYGYFAANIDLMMIEEYPYVVIL
# modifications: SBTI-agarose flow-through pool 1
# B3: Pool 2: second flow-through peak of nDer p 1 from the SBTI-agarose column (protein, UniProt P08176 99-320, looked up)
# Peptidase 1: TNACSINGNAPAEIDLRQMRTVTPIRMQGGCGSCWAFSGVAATESAYLAYRNQSLDLAEQELVDCASQHGCHGDTIPRGIEYIQHNGVVQESYYRYVAREQSCRRPNAQRFGISNYCQIYPPNVNKIREALAQTHSAIAVIIGIKDLDAFRHYDGRTIIQRDNGYQPNYHAVNIVGYSNAQGVDYWIVRNSWDTNWGDNGYGYFAANIDLMMIEEYPYVVIL
# modifications: SBTI-agarose flow-through pool 2
# How the values were obtained:
# nDer p 1 [1] = biological target: T1, nDer p 1; assay: Proteolytic activity of purified nDer p 1 pools in presence or absence of E64 (Z-LLE-AMC substrate); assay type: biochemical, D. pteronyssinus; details: for enzymatic activity of Der p 1 pool: DTT as reducing agent, absence of E64, 0.1 mM Z-LLE-AMC, 37° C.
# Protocol: (§1) The enzymatic activity of nDer p 1 was evaluated using the peptide substrate Z-LLE linked to the fluorescent group AMC. […] When Der p 1 is added, it cleaves the bond between AMC and the peptide sequence and the fluorescence increases considerably. Therefore the product formation was evaluated in terms of increase in fluorescence.
# (§2) All activity assays were performed on a Spectra Max instrument (GeminiXS Molecular Devises) at a temperature of 37° C. The fluorescence was measured using an excitation wavelength (λex) of 350 nm and emission wavelength (λem) of 450 nm. The Spectra Max instrument was set to automix before the first read and in between reads. The enzymatic activity was measured in RFU, relative fluorescent units. Using the software SoftMax® PRO 4.3 LS, the initial velocity of the reaction (V0) was estimated from the maximal slope of the progress curve.
# (§3) Stock solutions of assay buffer (50 mM Tris (Sigma), 5 mM EDTA (Fluka)) and 1 M DTT (Merck) were made once and kept at +5° C. and −20° C. respectively. DTT was kept in aliquots of 55 μl, and when necessary DTT was added to the assay buffer just before use.
# (§4) The total volume applied for each well in the micro titer plate (Corning, 96-well non-binding black polystyrene plate) amounted to 200 μl. The reaction was always started by the addition of 50 μl of 0.1 mM or 1 mM substrate diluted in assay buffer, and the fluorescence was measured continuously for 20-90 minutes.
# An enzymatic assay in the presence or absence of the cysteine protease specific inhibitor E64 was used in order to verify the identity of the purified protein as cysteine protease. One aliquot of nDer p 1 was pre-incubated for 1 hour at 37° C. with 25 μM E64 dissolved in assay buffer, while another aliquot was not. Afterwards the substrate was added at 0.1 mM concentration. The fluorescence was measured for 20 minutes. The concentration of nDer p 1 in the assay was 2.6 μM.
# nDer p 1 [2] = biological target: T1, nDer p 1; assay type: biochemical, D. pteronyssinus
# Protocol: as §1, §2, §3, §4
# It was evaluated whether nDer p 8, as a glutathione S-transferase, could catalyse the activation of nDer p 1 by GSH. In this assay, nDer p1 was kept at 1.3 μM and the GSH concentration at 100 μM (physiological concentration in the airways). nDer p 8 was added at four different concentrations: 0.4 μM, 0.6 μM, 0.8 μM and 1.2 μM. The last two components to be added to the well were GSH quickly followed by the substrate. The reaction was followed during 90 minutes.
# nDer p 1 [3] = biological target: T1, nDer p 1; assay type: biochemical, D. pteronyssinus; remark: listed apart in the source
# Protocol: as §1, §2, §3, §4
# It was tested whether glutathione (GSH) could activate nDer p 1, and whether the activation was dose-dependent. The activity of 1.3 μM nDer p 1 was determined in the presence of different GSH concentrations of 0.5 mM, 1.0 mM, 5.0 mM, 10.0 mM and 25.0 mM. As a control, the activity was also measured in the presence of 5 mM DTT. The fluorescence was measured for 90 minutes.
# [4] = proteolytically active Der p 1 versus Der p 1 inactivated with E64, cited from earlier work
# [5] = test system: confluent airway epithelial cells; details: in vitro, Wan et al. 1999; cited from earlier work
# [6] = 0.1 mM GSH, nDer p 8 0.4-1.2 μM
molecule,measurement,setting,value
"CC(C)C[C@H](NC(=O)[C@H]1O[C@@H]1C(=O)O)C(=O)NCCCCN=C(N)N (relative stereo) [E64, L-trans-epoxysuccinyl-leucylamido(4-guanidino)butane, reference compound]",inhibition of nDer p 1 proteolytic activity,"nDer p 1 [1]; 25 μM E64, pre-incubated 1 hour at 37° C., 2.6 μM nDer p 1",completely inhibited; also recorded: entirely inhibited
"nDer p 8: glutathione S-transferase from Dermaphagoides pteronyssinus, 25589 Da, 219 amino acids",time until activity differentiated from the test without nDer p 8,"nDer p 1 [2]; 0.4 μM nDer p 8, 0.1 mM GSH",over 30 minutes
same,time after which activity increased,"nDer p 1 [2]; 1.2 μM Der p 8, 0.1 mM GSH",approximately 8 minutes
same,velocity of the reaction at the end of the assay versus nDer p 8 concentration,"nDer p 1 [2]; 0.1 mM GSH, FIG. 6",increases significantly
same,effect of Der p 8 on Der p 1 activity (activation by GSH),nDer p 1 [2]; [6],higher; also recorded: enhances the activation
same,effect of Der p 8 on lag time of Der p 1 activation,nDer p 1 [2]; [6],shorter
"N[C@@H](CCC(=O)N[C@@H](CS)C(=O)NCC(=O)O)C(=O)O [GSH, Glutathione]",Der p 1 activity when activated by GSH,"nDer p 1 [2]; 0.1 mM GSH, no Der p 8",very low
same,lag time of Der p 1 activation,"nDer p 1 [2]; 0.1 mM GSH, no Der p 8",approximately 30 minutes
same,activation of nDer p 1 by GSH,"nDer p 1 [3]; 1.3 μM nDer p 1, GSH 0.5-25.0 mM, 90 minutes",dose-dependent
same,time after which nDer p 1 activity evolves,nDer p 1 [3]; 5.0 mM GSH,approx. 8 minutes
same,time after which nDer p 1 activity boosts,nDer p 1 [3]; 10.0 mM GSH,6 min
same,time after which nDer p 1 activity increases notably,nDer p 1 [3]; 25.0 mM,3 min
same,correlation between initial velocity of nDer p 1 activity and GSH concentration,nDer p 1 [3]; FIG. 4,approximate linear correlation
same,lag time of nDer p 1 activation (time required to detect enzyme activity),nDer p 1 [3]; GSH 0.1-0.5 mM (physiological concentrations in the airways),around 30 minutes
same,speed of nDer p 1 activation compared with DTT,nDer p 1 [3]; control 5 mM DTT,slower than the activation by DTT
B1,Der p 1 activity alone,"nDer p 1 [2]; 1.3 μM nDer p 1, substrate present, no reducing agent",no activity
same,lung inflammation,[4]; mice,notably higher
same,total IgE level in the circulation,"[4]; sensitized mice, intranasal",significantly higher
same,effect on intercellular tight junctions,[5],causes disruption of intercellular tight junctions
same,nDer p 1 activity when GSH is absent,nDer p 1 [3]; no GSH,no activity
B2,enzymatic activity of Der p 1 pool,nDer p 1 [1],there was activity
same,enzymatic activity of Der p 1 pool,nDer p 1 [1]; listed as first pool,clear activity
B3,enzymatic activity of Der p 1 pool,nDer p 1 [1],did not show any activity
same,enzymatic activity of Der p 1 pool,nDer p 1 [1]; listed as second pool,did not show any significant activity

# Source: US20100291155A1, “ALLERGY VACCINE COMPOSITION FOR MUCOSAL ADMINISTRATION” (ALK-Abello A/S, priority 2008, published 2010)
